Reference: US6897044 (Biogen, dated 2005)
Blank lines part the entries; values can stand above or below the binder they belong to.

Assays:
[1] = molecular target: T1, CD20 antigen (human, UniProt P11836 1-297); assay: competitive binding on SKW cells against murine 2B8, flow cytometry with FITC anti-human IgG (by the method, 2B8 was serially diluted and C2B8 fixed at 1 µg/ml)
T1 construct: whole, on cells; Carried by the cell lines SKW and SB (CD20+/CD23+) and DHL-4 (CD20+/CD23-); also called human CD20
T1 sequence (looked up): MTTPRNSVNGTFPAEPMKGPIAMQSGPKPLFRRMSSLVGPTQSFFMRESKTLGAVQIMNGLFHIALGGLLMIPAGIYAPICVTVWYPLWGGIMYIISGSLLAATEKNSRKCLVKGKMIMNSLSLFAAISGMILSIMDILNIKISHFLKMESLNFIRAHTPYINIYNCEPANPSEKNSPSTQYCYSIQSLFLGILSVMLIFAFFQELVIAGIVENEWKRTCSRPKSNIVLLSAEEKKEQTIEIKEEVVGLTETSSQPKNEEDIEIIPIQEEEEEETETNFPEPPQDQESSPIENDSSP
Description: (§1) Binding of monomer and dimerized antibody to various cells was evaluated by indirect immunostaining using FITC anti-human IgG and analyzed using flow cytometry (indirect IF). Cells (2×10^6 viable cells in 0.1 ml cmfPB S/2% Fetal Calf Serum/0.1% Sodium Azide, PBS/FCS buffer) were incubated for one hour on ice with 0.1 ml of 5 fold serially diluted antibody. Cells were twice washed by centrifugation (200×g) using 2 ml PBS/wash and suspended in 0.2 ml FITC conjugated Goat (Fab')_2 anti-human IgG (Jackson Immunoresearch #30869, 5 µg/ml in PBSIFCS buffer). After 30-min. incubation on ice, cells were again washed in PBS and suspended in 0.2 ml 0.5% freshly diluted formaldehyde, capped and stored at 4° C. until analysis. The amount of cell bound antibody was determined by flow cytometry (FACScan, Becton-Dickenson, Mountain View, Calif.).
(§2) The binding affinity of the C2B8 homodimer and monomer for the CD20 antigen was compared using a competitive binding assay (FIG. 10). SKW cells were first incubated for 30 minutes on ice with various amounts of 5-fold serially diluted murine (anti-CD20) MAb 2B8, and by 0.1 ml (at 1 µg/ml) of either C2B8 monomer or homodimer. Indirect IF, as described for FIG. 9, evaluated the amount of C2B8 binding. […]

[2] = molecular target: T1, CD20 antigen; assay: competitive binding on SKW cells against murine 2B8, flow cytometry with FITC anti-human IgG (by the method, 2B8 was serially diluted and homodimer fixed at 1 µg/ml)
Description: as §1, §2

IC50 [1]: 9.8 µg/mL
B1: C2B8, mouse/human chimeric monoclonal antibody specific for CD20 (150 kDa IgG monomer) (antibody, V domains shown)
VH: QVQLQQPGAELVKPGASVKMSCKASGYTFTSYNMHWVKQTPGRGLEWIGAIYPGNGDTSYNQKFKGKATLTADKSSSTAYMQLSSLTSEDSAVYYCARSTYYGGDWYFNVWGAGTTVTVSA
VL: QIVLSQSPAILSASPGEKVTMTCRASSSVSYIHWFQQKPGSSPKRWIYATSNLASGVPVRFSGSGSGTSYSLTISRVEAEDAATYYCQQWTSNPPTFGGGAKLEIKR
notes: also called C2B8 monomer; chimeric C2B8

IC50 [2]: 10.4 µg/mL
B2: C2B8 (-s-s-) homodimer, disulfide linked IgG/IgG homodimer of C2B8/SH (300 kDa, tetravalent) (antibody, V domains shown)
VH: B1 VH
VL: B1 VL
modifications: engineered cysteine near the carboxyl terminus of the gamma 1 chain (printed as position 444 and as position 445) joins the two IgG molecules by an intermolecular disulfide bond
notes: also called C2B8 (disulfide linked) homodimer; C2B8 homodimer
